The chains are these.
B1: library; numbered along this chain (parent)
chain: MNIQIGELAKRTACPVVTIRFYEQEGLLPPPGRSRGNFRLYGEEHVERLQFIRHCRSLDMPLSDVRTLLSYRKRPDQDCGEVNMLLDEHIRQVESRIGALLELKHHLVELREACSGARPAQSCGILQGLSDCVCDTRGTTAHPSD

Variants of B1 are the subject of series [1]. Description: sfGFP reporter fluorescence (15 h) (µM FITC); higher = higher leak. Particulars: library round: Round 1; ligand: none. In a few lines:
(§1)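 Readout was endpoint sfGFP fluorescence, converted to µM FITC through standard curves. Reactions were 1 μL of BL21 Star (DE3) PANOx-SP extract with pPbrR-sfGFP reporter, 30 μg/mL GamS and linear PbrR templates normalized to 5 nM, containing 1 µM lead chloride, 30 µM zinc acetate or no metal. Incubation lasted 15 hr at 30 °C, with up to three biological replicates.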

The variants in series [2] derive from B1. Description: sfGFP reporter fluorescence (15 h) (µM FITC); higher = stronger transcriptional activation. Particulars: library round: Round 1. In a few lines:
as §1

± gives the standard deviation of the averaged measurements.

As for MNIQIGELAKRTACPVVTIRFYEQEGLLPPPGRSRGNFRLYGEEHVERLQFIRHCRSLDLNLSKVRTLLSYRKRPDQDCGEVNMLLDEHIRQVESRIGALLELKHHLVELREACSGARPAQSCGILQGLSCCVCDTRGTTAHPSD [M60L P61N D64K D131C], the sfGFP reporter fluorescence was found to be 0.194 ± 0.0087 in series [1], 0.7 ± 0.062 in series [2] (ligand: 1 µM Pb) and 1.15 ± 0.26 in series [2] (ligand: 30 µM Zn).

Consider MNIQIGELAKRTACPVVTIWFYEQEGLLPPPGRSRGNFRLYGEEHVERLQFIRHCRSLDMPLSDVRTLLSYRKRPDQDCGEVNMLLDEHIRQVESRIGALLELKHHLVELLEACSGARPAQSCGILQGLSDCVCDTRGTTAHPSD [R20W R111L], for which the sfGFP reporter fluorescence was 0.06866 ± 0.00056 in series [1], 0.0663 ± 0.0045 in series [2] (ligand: 1 µM Pb) and 0.0727 ± 0.0011 in series [2] (ligand: 30 µM Zn).

With MNIQIGELAKRTACPVVTIRFYEQEGLLPPPGRSRGNFRLYGEEHVERLQFIRHCRSLDMPLSDVRTLLSYRKRPDQDCGEVNMLLDEHIRQVESRIGALLELKHHLVELREACSGARPAQSCGILQGLSACVVDTRGTTAHPSD [D131A C134V], the sfGFP reporter fluorescence was found to be 0.0781 ± 0.0011 in series [1], 0.12 ± 0.0056 in series [2] (ligand: 1 µM Pb) and 1.24 ± 0.15 in series [2] (ligand: 30 µM Zn).

For the variant MNIQIGELAKRTACPVVTIRFYEQEGLLPPPGRSRGNFRLYGCEHVERLQFIRHCRSLDMPLSDVRTLLSYRKRPDQDCGEVNMLLDEHIRQVESRIGALLELVHHLVELREACSGARPAQSCGILQGLSDCVCDTRGTTAHPSD [E43C K104V], the sfGFP reporter fluorescence in series [1] was 0.065 ± 0.0013; in series [2] (ligand: 1 µM Pb) it was 0.0922 ± 0.0039; in series [2] (ligand: 30 µM Zn), 0.162 ± 0.011.

Turning to MNIQIGELAKRTACPVVTIRFYEQEGLLPPPGRSRGNFRLYGEEHVERLQFIRHCRSLDLPLSKVRTLLSYRKRPDQDCGEVNMLLDEHIRQVESRIGALLELKHHLVELREACSGARPAQSCGILQGLSDCVCDTRGTTAHASD [M60L D64K P143A], the values for the sfGFP reporter fluorescence in series [1], in series [2] (ligand: 1 µM Pb) and in series [2] (ligand: 30 µM Zn) were 0.3527 ± 0.0018, 0.945 ± 0.11 and 2.4 ± 0.12, respectively.

For MNIQIGELAKRTACPVVTIRFYEQEGLLPPPGRSRGNFRLYGEEHVERLQFIRHCRSLDLNLSKVRTLLSYRKRPDQDCGEVNMLLDEHIRQVESRIGALLELKHHCVELREACSGARPAQSCGILQMLSDCVCDTRGTTAHPSD [M60L P61N D64K L107C G128M], the sfGFP reporter fluorescence in series [1] came out at 2.5 ± 0.028; in series [2] (ligand: 1 µM Pb), 2.54 ± 0.22; in series [2] (ligand: 30 µM Zn) it was 2.51 ± 0.45.

As for MNIQIGELAKRTACPVVTIRFYEQEGLLPPPGRSRGNFRLYGEEHVERLQFIRHCRSLDMPLSDVRTLLSYRKRPDQDCGEVTMLLDEHIRQVESRSGALLELGHHLVELREACSGARPAQSCGILQGLSDCVCDTRGTTAHPSD [N83T I97S K104G], the sfGFP reporter fluorescence in series [1] was determined as 0.0612 ± 0.0026; in series [2] (ligand: 1 µM Pb), 0.076 ± 0.0097; in series [2] (ligand: 30 µM Zn) it was 0.102 ± 0.0094.

With MNIQIGELAKRTACPVVTIRFYEQEGLLPPPGRSRGNFRLYGEEHVERLQFIRHCRSLDMPLSDVRTLLSYRKRPDQDCGEVTMLLDEQIRQVESRIGALLELKHHLVELREACSGARPAQSCGILQGLSDCVCDTRGTTAHPSD [N83T H89Q], the sfGFP reporter fluorescence in series [1] amounted to 0.0608 ± 0.0025; in series [2] (ligand: 1 µM Pb), 0.0955 ± 0.011; in series [2] (ligand: 30 µM Zn), 0.258 ± 0.013.

In the case of MNIQIGELAKRTACPVVTIRFYEQEGLLPPPGRSRGNFRLYGEEHVERLQFIRHCRSLDMSLSDVRTLLSYRKRPDQDCGEVNMLLDEHIRQVESRIGALLELKHHLVELREACSGARPAQSCGILQILSCCVCDTRGTTAHPSD [P61S G128I D131C], the sfGFP reporter fluorescence worked out at 0.12 ± 0.0019 in series [1], 0.286 ± 0.053 in series [2] (ligand: 1 µM Pb) and 1.25 ± 0.2 in series [2] (ligand: 30 µM Zn).

On to MNIQIGELAKRTACPVVTIRFYEQEGLLPPPGRSRGNFRLYGEEHVERLQFIRHCRSLDLPLSKVRTLLSYRKRPDQDCGEVNMLLDEHIRQVESRIGALLELKHHLVELLEACSGARPAQSCGILQGLSDCVCDTRGTTAHPSD [M60L D64K R111L], for which the sfGFP reporter fluorescence came out at 0.205 ± 0.0039 in series [1], 0.676 ± 0.1 in series [2] (ligand: 1 µM Pb) and 1.99 ± 0.49 in series [2] (ligand: 30 µM Zn).

With MNIQIGELAKRTACPVVTIRFYEQEGLLPPPGRSRGNFRLYGEEHVERLQFIRHCRSLDMPLSKVRTLLSYRKRPDQDCGEVTMLLDEHIRQVESRIGALLELKHHLVELREACSGARPAQSCGILQGLSSCVCDTRGTTAHPSD [D64K N83T D131S], the sfGFP reporter fluorescence turned out to be 0.0698 ± 0.0016 in series [1], 0.29 ± 0.022 in series [2] (ligand: 1 µM Pb) and 1.03 ± 0.022 in series [2] (ligand: 30 µM Zn).

In the case of MNIQIGELAKRTACPVVTIRFYEQEGLLPPPGRSRGNFRLYGEEHVERLQFIRHCRSLDMNLSKVRTLLSYRKRPDQDCGEVNMLLDEHIRQVESRIGALLELKHHLHELREACSGARPAQSCGILQGLSDCVCDTRGTTAHPSD [P61N D64K V108H], the sfGFP reporter fluorescence in series [1] is 0.139 ± 0.0027; in series [2] (ligand: 1 µM Pb), 0.462 ± 0.044; in series [2] (ligand: 30 µM Zn), 1.48 ± 0.026.

MNIQIGELAKRTACPVVTIRFYEQEGLLPPPGMSRGNFRLYGEEHVERLQFIRHCRSLDMPLSDVRTLLSYRKRPDQDCGEVNMLLDEHIRQVESRIGALLELKHHLVELREACSGARPAQSCGILTGLSDCVCDTRGTTAHPSD [R33M Q127T]: the sfGFP reporter fluorescence stood at 0.0635 ± 0.0027 in series [1], 0.0614 ± 0.0047 in series [2] (ligand: 1 µM Pb) and 0.0645 ± 0.0022 in series [2] (ligand: 30 µM Zn).

Consider MNIQIGELAKRTACPVVTIRFYEQEGLLPPPGRSRGNFRLYGEEHVERLQFIRHCRSLDMPLSDVRTLLSYRKRPDQDCGEVNMLLDEHIRQVESRIGALLELKHHLVELREACSGARPAQSCGILQILSECVCDTRGTTAHPSD [G128I D131E], for which the sfGFP reporter fluorescence in series [1] is 0.0825 ± 0.0029; in series [2] (ligand: 1 µM Pb), 0.203 ± 0.022; in series [2] (ligand: 30 µM Zn), 1.34 ± 0.037.

The values are drawn from the supplement of paper PMC12783771.
